These results are taken from PMC8073977, “Structural Basis for the C-Terminal Domain of Mycobacterium tuberculosis Ribosome Maturation Factor RimM to Bind Ribosomal Protein S19” (Biomolecules, 2021).

Residue numbers refer to the chain shown, from its start. Names and notes keep the numbering of the source.

The test addresses T1, Ribosomal protein S19 from Mycobacterium tuberculosis (MtbS19, residues 1-93) (Mycobacterium tuberculosis strain H37Rv, UniProt P9WH45 1-93).
T1 construct: 30S ribosomal protein S19, M. tuberculosis H37Rv, residues 1-93; pET-28a with thrombin-cleavable N-terminal His6-tag; Surmise: a few vector residues remain at the N-terminus after thrombin cleavage; In PDB 5V93 residues 84-93 of S19 are absent; not shown: His6, N-terminal, cleaved
Briefly: SPR; Biacore T200, 298 K; […]; 20 mM potassium phosphate pH 7.2, 100 mM KCl; […]. As to conditions: both partners purified. In general terms: In SPR one partner is held on a chip, and binding of the other changes the refractive index at the surface.

T1 sequence (P9WH45 whole entry, the tested form may be a part): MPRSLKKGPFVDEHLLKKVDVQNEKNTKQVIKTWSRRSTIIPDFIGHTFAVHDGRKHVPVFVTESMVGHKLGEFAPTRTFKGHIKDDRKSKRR

B1: C-terminal domain of RimM from Mycobacterium tuberculosis (MtbRimMCTD, residues 101-176), wild type (domain or fragment)
chain: DTYYDHQLVGLMVQTATGEGVGVVTEVVHTAAGELLAVKRDSDEVLVPFVRAIVTSVSLDDGIVEIDPPHGLLNLE
notes: A starting Met stands before D101 (Nde I site); Surmise: pET-22b with Xho I adds Leu-Glu before the His6 tag; Theoretical Mw of the recombinant protein printed as 9.28 kDa; 15N-labelled in the NMR titrations, unlabelled in SPR; also called WT MtbRimMCTD; not shown: His6, C-terminal, kept
As for B1, binding was characterised by a dissociation constant (Kd) of 2.16 µM.

B2: MtbRimMCTD D105A (domain or fragment)
chain: B1 chain with D5A
notes: Same limits and tag as m1; also called MtbRimM D105A; not shown: His6, C-terminal, kept
Molecule B2 gave a Kd of 7.06 µM.

B3: MtbRimMCTD H129A (domain or fragment)
chain: B1 chain with H29A
notes: Same limits and tag as m1; not shown: His6, C-terminal, kept
As for B3, the Kd was determined as 12.7 µM.

B4: MtbRimMCTD E144A (domain or fragment)
chain: B1 chain with E44A
notes: as for B3
For the molecule B4, the binding result is reported as “binds”.

B5: MtbRimMCTD E126A (domain or fragment)
chain: B1 chain with E26A
notes: as for B3
For the molecule B5, the binding result is listed as “binds”.

As usually defined, the Kd is the constant that tells how readily two partners part at equilibrium. The low end stands for higher affinity, the high end for lower affinity.
